In patent US20030027314A1:

What was measured:
c-Jun (unmodified) [1] = assay: thermal melting curve, mixture (FIG. 4)
[2] = biological target: bHLH MAX (unmodified Max); assay: homodimer, study of FIG. 9 (method not given)
[3] = biological target: c-Myc bHLH protein (murine) (UniProt P01108); assay: heterodimer with c-Myc, study of FIG. 9 (method not given)
c-Jun (unmodified) [4] = assay: from thermal melts, Kd at 37 °C (FIG. 4)
Target sequence in this assay (chain, from a related filing, as listed by the source): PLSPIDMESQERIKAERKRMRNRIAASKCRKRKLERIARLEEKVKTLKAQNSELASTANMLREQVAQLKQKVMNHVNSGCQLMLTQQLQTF

Chain of c-Fos (unmodified) (P01100 other isoform, or with tags, fused parts or gaps limits assumed): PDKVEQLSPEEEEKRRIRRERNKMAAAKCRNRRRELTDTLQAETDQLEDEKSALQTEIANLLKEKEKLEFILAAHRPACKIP
Chain of bHLH MAX (unmodified Max) (P61244 22-113): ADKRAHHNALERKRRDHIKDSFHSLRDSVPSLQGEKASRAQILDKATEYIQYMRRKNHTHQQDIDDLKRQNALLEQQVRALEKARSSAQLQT

0heptad-Fos (c-Fos with the basic region deleted)
Tm (c-Jun (unmodified) [1]): 53 °C

bHLH MAX (unmodified Max)
Kd [2]: 6 µM | Kd [3]: 30 nM

c-Fos (unmodified) (from UniProt P01100 128-207)
Kd (c-Jun (unmodified) [4]): 200 nM | Tm (c-Jun (unmodified) [1]): 50 °C
